Results on 7 molecules are retold here after paper doi:10.1101/2024.04.04.584535, “Human Saposin B Ligand Binding and Presentation to α-Galactosidase A” (bioRxiv, 2024).

The labels stand for the following.
B3: α-galactosidase A D170A (catalytic nucleophile mutant) (enzyme, human)
chain: LDNGLARTPTMGWLHWERFMCNLDCQEEPDSCISEKLFMEMAELMVSEGWKDAGYEYLCIDDCWMAPQRDSEGRLQADPQRFPHGIRQLANYVHSKGLKLGIYADVGNKTCAGFPGSFGYYDIDAQTFADWGVDLLKFAGCYCDSLENLADGYKHMSLALNRTGRSIVYSCEWPLYMWPFQKPNYTEIRQYCNHWRNFADIDDSWKSIKSILDWTSFNQERIVDVAGPGGWNDPDMLVIGNFGLSWNQQVTQMALWAIMAAPLFMSNDLRHISPQAKALLQDKDVIAINQDPLGKQGYQLRQGDNFEVWERPLSGLAWAVAMINRQEIGGPRSYTIAVASLGKGVACNPACFITQLLPVKRKLGFYEWTSRLRSHINPTGTVLLQLENTMQMSLKDLL
notes: human α-galactosidase A (UniProt P06280), D170A mutant; Secreted into the Sf9 supernatant, so the signal peptide is probably removed (surmised); Glycosylated; Homodimer; also called GLA^D170A; GLA

Data set [1] addresses T1, SapD (saposin D) (Homo sapiens, UniProt P07602).
T1 construct: gene PSAP; mature saposin D, E. coli expressed
T1 sequence (P07602 405-486): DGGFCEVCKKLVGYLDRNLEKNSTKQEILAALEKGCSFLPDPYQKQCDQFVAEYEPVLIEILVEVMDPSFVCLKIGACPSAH
Description: NBD fluorescence equilibrium binding, acidic pH only.

Data set [2] addresses T2, SapB (saposin B; sphingolipid activator protein B) (Homo sapiens, UniProt P07602).
T2 sequence (P07602 195-273): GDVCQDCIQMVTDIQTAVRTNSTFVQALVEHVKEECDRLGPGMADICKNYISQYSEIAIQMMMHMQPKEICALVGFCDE
Nature of the data set: NBD fluorescence equilibrium binding (pH […] h); also SEC co-migration and LC-MS of co-crystals. Details: gene PSAP; mature saposin B, E. coli expressed (SapB dimer).

Data set [3] addresses T2, SapB (saposin B; sphingolipid activator protein B). Nature of the data set: NBD fluorescence equilibrium binding (pH […] days), weak. Set-up: gene PSAP; mature saposin B, E. coli expressed.
Data set [4] deals with T3, α-galactosidase A, wild type (human, UniProt P06280 32-429).
T3 sequence (looked up): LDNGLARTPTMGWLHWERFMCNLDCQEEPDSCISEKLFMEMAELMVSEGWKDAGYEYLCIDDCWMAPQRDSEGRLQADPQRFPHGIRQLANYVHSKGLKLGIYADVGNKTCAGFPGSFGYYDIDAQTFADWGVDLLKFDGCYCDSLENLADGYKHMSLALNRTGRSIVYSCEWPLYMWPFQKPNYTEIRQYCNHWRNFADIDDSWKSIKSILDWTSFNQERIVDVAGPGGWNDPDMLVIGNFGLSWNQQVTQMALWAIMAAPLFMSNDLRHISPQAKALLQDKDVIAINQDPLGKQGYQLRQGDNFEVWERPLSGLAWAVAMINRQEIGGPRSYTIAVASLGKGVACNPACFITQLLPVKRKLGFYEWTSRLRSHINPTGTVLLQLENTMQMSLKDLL

For data set [5], the target named is Sphingolipid activator protein B (saposin B) (human) (UniProt P07602). Description: crystal structure; SapB co-crystallised with Gb3-NBD at about molar equivalence; 3.25 M malonate pH 5, 20 °C; 2.68 Å.
For data set [6] the target is unchanged. Description: cross-linking; BS3 cross-linker (0-1 mM), 10 μM GLA^D170A or GAA, 50-100 μM SapB (with 20% SapB^ANBD in some gels) or 100 μM SapD, 0-200 μM Gb3-NBD, PBS pH 6.5, one hour; Tricine-SDS-PAGE with One-Step Blue stain, in-gel NBD fluorescence and anti-GLA western blot; also at 10 μM SapB^ANBD, 1 μM GLA^D170A, 50 μM Gb3-NBD. On the technique in general: Immunoblotting shows a protein as a band on a membrane.

Data set [7] addresses T3, α-galactosidase A, wild type. Description: cell-based or functional assay.
For data set [8], the target named is B3. Description: cross-linking; BS3 cross-linker (0-1 mM), 10 μM GLA^D170A or GAA, 50-100 μM SapB (with 20% SapB^ANBD in some gels) or 100 μM SapD, 0-200 μM Gb3-NBD, PBS pH 6.5, one hour; Tricine-SDS-PAGE with One-Step Blue stain, in-gel NBD fluorescence and anti-GLA western blot; also at 10 μM SapB^ANBD, 1 μM GLA^D170A, 50 μM Gb3-NBD. The following applies: both partners purified.

Substrate in data set [9]: O=[N+]([O-])c1ccc(O[C@H]2O[C@H](CO)[C@H](O)[C@H](O)[C@H]2O)cc1
Description: purified protein. It counts as biochemical, Homo sapiens.

Data set [10] concerns the molecule itself. Nature of the data set: crystal structure; SapB preincubated with DDAO detergent (~1:47) at pH 5, mixed with GLA^D170A; crystals in 0.1 M Tris pH 8, 1 M ammonium sulfate, 20 °C; 3.53 Å.

A word on the Kd: it is a measure of binding affinity in units of concentration. Low values mean a tighter complex, high ones a looser complex. `CCCCCCCCCCCCC/C=C/[C@@H](O)[C@H](CO[C@@H]1O[C@H](CO)[C@@H](O[C@@H]2O[C@H](CO)[C@H](O[C@H]3O[C@H](CO)[C@H](O)[C@H](O)[C@H]3O)[C@H](O)[C@H]2O)[C@H](O)[C@H]1O)NC(=O)CCCCCCCCCCCNc1ccc([N+](=O)[O-])c2nonc12` [Gb3-NBD]: the values for the Kd in [1] and in data set [2] were 38 ± 2 µM and 5.8 ± 0.5 µM, respectively.
Take `CCCCCCCCCCCCCCC[C@@H](O)[C@H](CO)NC(=O)CCCCCCCCCCCNc1ccc([N+](=O)[O-])c2nonc12` [Cer-NBD]: in [3], the Kd is above 95 µM.
“SapB^ANBD (SapB N21C labelled with IANBD amide) (natural protein)” displayed a galactose production from Gb3-NBD by GLA in an 18-hour enzyme-activator assay, relative to wild-type SapB in data set [4] of 80%.
As usually defined, the stoichiometry N is the number of molecules, sites or subunits per partner or assembly. As to “Sphingolipid activator protein B (saposin B) (from UniProt P07602 195-273) (natural protein)”, the stoichiometry N in [5] and in data set [6] was 2 in each case.

B1: Saposin D (natural protein, human, UniProt P07602 405-486, looked up)
chain: DGGFCEVCKKLVGYLDRNLEKNSTKQEILAALEKGCSFLPDPYQKQCDQFVAEYEPVLIEILVEVMDPSFVCLKIGACPSAH
notes: saposin D, the mature cut product of prosaposin (UniProt P07602); Tag printed as enterokinase-cleavable N-terminal His8-DDDDK-GAS; GAS probably left after cleavage (surmised); also called SapD; source: E. coli Shuffle T7 Express, purified (heat shock, Ni agarose, enterokinase cleavage, SEC); not shown: His8, N-terminal, cleaved
Take B1: in data set [7], the “free galactose released from Gb3-NBD by wild-type GLA after 2.5 hours in acidic buffer (Amplex Red galactose assay); SapD at a tenfold molar excess to GLA” value is around 5 µM. Also, in data set [8], the binding result was “binds”.

B2: α-galactosidase A (GLA) (Homo sapiens) (protein)
chain: LDNGLARTPTMGWLHWERFMCNLDCQEEPDSCISEKLFMEMAELMVSEGWKDAGYEYLCIDDCWMAPQRDSEGRLQADPQRFPHGIRQLANYVHSKGLKLGIYADVGNKTCAGFPGSFGYYDIDAQTFADWGVDLLKFDGCYCDSLENLADGYKHMSLALNRTGRSIVYSCEWPLYMWPFQKPNYTEIRQYCNHWRNFADIDDSWKSIKSILDWTSFNQERIVDVAGPGGWNDPDMLVIGNFGLSWNQQVTQMALWAIMAAPLFMSNDLRHISPQAKALLQDKDVIAINQDPLGKQGYQLRQGDNFEVWERPLSGLAWAVAMINRQEIGGPRSYTIAVASLGKGVACNPACFITQLLPVKRKLGFYEWTSRLRSHINPTGTVLLQLENTMQMSLKDLL
notes: wild-type human GLA, C-terminal 2x-FLAG, Sf9 expressed
In general, Km refers to the substrate concentration at which the rate is half of its maximum. B2: the Km in data set [9] amounted to 9.9 mM.
In the case of B3, the Km in data set [9] was determined as 7.4 mM. In addition, the “stoichiometry N” value in data set [10] worked out at 2.
